# Positions count from the first letter of the chain named.
# T1: U2AF23 WT;U2AF59 fragment (Schizosaccharomyces …, UniProt Q09176;P36629 1-216;93-161, |)
# T1 sequence 1: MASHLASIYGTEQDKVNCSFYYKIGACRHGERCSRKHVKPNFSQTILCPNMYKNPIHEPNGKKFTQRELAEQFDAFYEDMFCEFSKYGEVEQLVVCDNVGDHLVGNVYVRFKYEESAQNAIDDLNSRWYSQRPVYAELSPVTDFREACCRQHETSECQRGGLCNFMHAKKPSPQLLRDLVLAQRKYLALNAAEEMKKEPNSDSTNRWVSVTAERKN
# T1 sequence 2: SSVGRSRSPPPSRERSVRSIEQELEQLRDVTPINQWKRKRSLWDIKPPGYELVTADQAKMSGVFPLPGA
# T2: U2AF23, the small subunit of fission yeast Schizosaccharomyces pombe U2AF (Schizosaccharomyces pombe, UniProt Q09176 1-216)
# T2 sequence: T1 sequence 1
# T3: U2AF23 Q151R;U2AF59 fragment (Schizosaccharomyces …, UniProt Q09176;P36629 1-216;93-161, Q151R|)
# T3 sequence 1: T1 sequence 1 with Q151R
# T3 sequence 2: T1 sequence 2
# T4: U2AF23 F20A;U2AF59 fragment (Schizosaccharomyces …, UniProt Q09176;P36629 1-216;93-161, F20A|)
# T4 sequence 1: T1 sequence 1 with F20A
# T4 sequence 2: T1 sequence 2
# T5: U2AF23 R28S;U2AF59 fragment (Schizosaccharomyces …, UniProt Q09176;P36629 1-216;93-161, R28S|)
# T5 sequence 1: T1 sequence 1 with R28S
# T5 sequence 2: T1 sequence 2
# T6: U2AF23 F165A;U2AF59 fragment (Schizosaccharomyces …, UniProt Q09176;P36629 1-216;93-161, F165A|)
# T6 sequence 1: T1 sequence 1 with F165A
# T6 sequence 2: T1 sequence 2
# T7: U2AF23 R159S;U2AF59 fragment (Schizosaccharomyces …, UniProt Q09176;P36629 1-216;93-161, R159S|)
# T7 sequence 1: T1 sequence 1 with R159S
# T7 sequence 2: T1 sequence 2
# T8: U2AF23 R35S;U2AF59 fragment (Schizosaccharomyces …, UniProt Q09176;P36629 1-216;93-161, R35S|)
# T8 sequence 1: T1 sequence 1 with R35S
# T8 sequence 2: T1 sequence 2
# T9: U2AF23 R150S;U2AF59 fragment (Schizosaccharomyces …, UniProt Q09176;P36629 1-216;93-161, R150S|)
# T9 sequence 1: T1 sequence 1 with R150S
# T9 sequence 2: T1 sequence 2
# B1: U2AF59 fragment spanning residues 93–161 (S. pombe U2AF large subunit) (domain or fragment)
# chain: T1 sequence 2
# Columns and labels:
# [1] = target: T1, U2AF23 WT;U2AF59 fragment; assay: ITC
# [2] = target: T2, U2AF23, the small subunit of fission …; assay: crystal structure
# [3] = target: T3, U2AF23 Q151R;U2AF59 fragment; assay: ITC
# [4] = target: T4, U2AF23 F20A;U2AF59 fragment; assay: ITC
# [5] = target: T5, U2AF23 R28S;U2AF59 fragment; assay: ITC
# [6] = target: T6, U2AF23 F165A;U2AF59 fragment; assay: ITC
# [7] = target: T7, U2AF23 R159S;U2AF59 fragment; assay: ITC
# [8] = target: T8, U2AF23 R35S;U2AF59 fragment; assay: ITC
# [9] = target: T9, U2AF23 R150S;U2AF59 fragment; assay: ITC
binder,measurement,setting,value
CUACG (ssRNA),binding result,[1],no binding
CUUGG (ssRNA),Kd,[1],429 µM
B1,binding result,[2],binds
CUGGG (ssRNA),Kd,[1],63 µM
CUAGG (ssRNA),Kd,[3],0.75 µM
same,binding result,[4],no binding
same,Kd,[5],12 µM
same,Kd,[1],1.2 µM
same,binding result,[6],no binding
same,binding result,[7],no binding
same,binding result,[8],no binding
same,binding result,[9],no binding
CUCGG (ssRNA),Kd,[1],296 µM
UUUUUUUUUU (ssRNA) [U10],binding result,[1],no binding
CUAUG (ssRNA),Kd,[3],53 µM
same,binding result,[1],no binding
